Test results taken from article PMC9508239 (Nature Communications, 2022).

Target: the molecule itself
Experiment: cryo-EM structure; purified MmIR dimer fraction (20 mM Hepes-Na pH 7.4, 150 mM NaCl, 0.03% DDM) mixed with synthesized S597-component-2 (S597-N20) at 1:4 (m:m), incubated half an hour, 4 °C, concentrated to 6 mg/ml

B1: full-length mouse insulin receptor, short isoform, with kinase-dead mutation D1122N and mutation Y962F (receptor, UniProt P15208 28-1372, looked up)
chain: HLYPGEVCPGMDIRNNLTRLHELENCSVIEGHLQILLMFKTRPEDFRDLSFPKLIMITDYLLLFRVYGLESLKDLFPNLTVIRGSRLFFNYALVIFEMVHLKELGLYNLMNITRGSVRIEKNNELCYLATIDWSRILDSVEDNYIVLNKDDNEECGDVCPGTAKGKTNCPATVINGQFVERCWTHSHCQKVCPTICKSHGCTAEGLCCHKECLGNCSEPDDPTKCVACRNFYLDGQCVETCPPPYYHFQDWRCVNFSFCQDLHFKCRNSRKPGCHQYVIHNNKCIPECPSGYTMNSSNLMCTPCLGPCPKVCQILEGEKTIDSVTSAQELRGCTVINGSLIINIRGGNNLAAELEANLGLIEEISGFLKIRRSYALVSLSFFRKLHLIRGETLEIGNYSFYALDNQNLRQLWDWSKHNLTITQGKLFFHYNPKLCLSEIHKMEEVSGTKGRQERNDIALKTNGDQASCENELLKFSFIRTSFDKILLRWEPYWPPDFRDLLGFMLFYKEAPYQNVTEFDGQDACGSNSWTVVDIDPPQRSNDPKSQTPSHPGWLMRGLKPWTQYAIFVKTLVTFSDERRTYGAKSDIIYVQTDATNPSVPLDPISVSNSSSQIILKWKPPSDPNGNITHYLVYWERQAEDSELFELDYCLKGLKLPSRTWSPPFESDDSQKHNQSEYDDSASECCSCPKTDSQILKELEESSFRKTFEDYLHNVVFVPRPSRKRRSLEEVGNVTATTLTLPDFPNVSSTIVPTSQEEHRPFEKVVNKESLVISGLRHFTGYRIELQACNQDSPDERCSVAAYVSARTMPEAKADDIVGPVTHEIFENNVVHLMWQEPKEPNGLIVLYEVSYRRYGDEELHLCVSRKHFALERGCRLRGLSPGNYSVRVRATSLAGNGSWTEPTYFYVTDYLDVPSNIAKIIIGPLIFVFLFSVVIGSIYLFLRKRQPDGPMGPLYASSNPEFLSASDVFPSSVYVPDEWEVPREKITLLRELGQGSFGMVYEGNAKDIIKGEAETRVAVKTVNESASLRERIEFLNEASVMKGFTCHHVVRLLGVVSKGQPTLVVMELMAHGDLKSHLRSLRPDAENNPGRPPPTLQEMIQMTAEIADGMAYLNAKKFVHRNLAARNCMVAHDFTVKIGDFGMTRDIYETDYYRKGGKGLLPVRWMSPESLKDGVFTASSDMWSFGVVLWEITSLAEQPYQGLSNEQVLKFVMDGGYLDPPDNCPERLTDLMRMCWQFNPKMRPTFLEIVNLLKDDLHPSFPEVSFFYSEENKAPESEELEMEFEDMENVPLDRSSHCQREEAGGREGGSSLSIKRTYDEHIPYTHMNGGKKNGRVLTLPRSNPS
notes: insulin receptor, mouse, short isoform (A isoform), full length; Disulfide-linked dimer; The proreceptor is written as one chain; An HRV-3C site lay between the receptor and Tsi3; also called MmIR; IR; source: FreeStyle 293-F cells (BacMam), purified (DDM extraction, Tse3 resin, HRV-3C elution, Superose 6; dimer fraction); not shown: Tsi3, C-terminal, cleaved
- binding result: binds
